Results reported in patent publication US9512172B2, “Ethanol dependence of alpha1 antitrypsin C-terminal Lys truncation by basic carboxypeptidases” (Baxalta Incorporated, priority 2006, dated 2016).

What was measured:
[1] = molecular target: T1, CPN present in the paste (Homo sapiens, UniProt P15169); assay: Effect of CP inhibitors on C-terminal lysine truncation in dissolved, ethanol-treated IV-1 paste (IEF); assay type: biochemical
T1 construct: Cohn IV-1 precipitate is usually derived after ethanol fractionation of plasma; from tissue; host or cells: Cohn IV-1 paste (ethanol precipitate of plasma)
T1 sequence (P15169 21-458): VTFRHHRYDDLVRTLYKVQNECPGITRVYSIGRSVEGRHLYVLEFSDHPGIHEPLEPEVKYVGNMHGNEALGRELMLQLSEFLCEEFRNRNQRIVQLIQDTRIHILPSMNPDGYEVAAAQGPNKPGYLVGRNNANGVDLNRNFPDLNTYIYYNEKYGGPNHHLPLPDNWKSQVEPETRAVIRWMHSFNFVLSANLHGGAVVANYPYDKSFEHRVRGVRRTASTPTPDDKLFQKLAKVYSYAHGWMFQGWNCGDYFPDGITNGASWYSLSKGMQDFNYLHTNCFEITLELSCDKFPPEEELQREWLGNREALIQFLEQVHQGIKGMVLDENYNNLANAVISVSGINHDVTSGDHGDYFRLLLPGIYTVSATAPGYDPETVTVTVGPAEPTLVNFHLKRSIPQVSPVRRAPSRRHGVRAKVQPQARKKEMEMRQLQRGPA
T1 sequence (P22792 22-545 partner): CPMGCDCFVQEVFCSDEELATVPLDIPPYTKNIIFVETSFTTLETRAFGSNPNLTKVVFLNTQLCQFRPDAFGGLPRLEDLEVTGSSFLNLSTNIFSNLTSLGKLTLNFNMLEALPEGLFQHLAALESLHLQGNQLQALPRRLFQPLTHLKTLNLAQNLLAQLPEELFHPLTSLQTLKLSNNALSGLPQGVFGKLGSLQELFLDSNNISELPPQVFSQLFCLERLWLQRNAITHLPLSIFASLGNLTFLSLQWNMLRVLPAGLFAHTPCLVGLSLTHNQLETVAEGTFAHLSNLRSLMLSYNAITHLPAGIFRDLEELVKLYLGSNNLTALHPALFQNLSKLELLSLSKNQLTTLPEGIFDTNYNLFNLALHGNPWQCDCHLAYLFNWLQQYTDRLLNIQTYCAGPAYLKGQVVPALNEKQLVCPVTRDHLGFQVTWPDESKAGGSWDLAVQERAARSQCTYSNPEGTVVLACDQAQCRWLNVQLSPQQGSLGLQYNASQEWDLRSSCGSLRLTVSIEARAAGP
Description: (§1) Cohn IV-1 paste was dissolved in 2.6 volumes of 10 mM Tris-buffer at pH 8.8 and incubated for 30 min at 22° C. The suspension was made 40% in ethanol (by addition of 2.4 volumes of ethanol), stirred for a further 60 min, diluted with the same Tris-buffer to 10% ethanol and extracted for a further 6 h.
The following inhibitors were added in parallel during extraction and dilution with Tris-buffer: 100 mM 6-aminocaproic acid, 10 μM or 1 nM 2-mercaptomethyl-3-guanidinoethylthiopropanoic acid (a more specific inhibitor of CPN). The samples were characterized by high resolution isoelectric focusing.
(§2) For high resolution isoelectric focusing a new hybrid IEF method using IPG-Immobiline gels (GE Healthcare Bio-Sciences, pI 4.2-4.9, Uppsala, Sweden) was developed which is similar to that described by Weidinger^54. Samples were diluted with water to 0.5 mg A1PI/mL and 5 mM DTE was added. Samples (20 μl) were applied close to the cathode on the pre-focused gel and focused for 150 min (5000 Vh). For paste extracts focusing time was extended to 420 min. Gels were stained with Coomassie Brilliant Blue G-250 (BioRad, Hercules, USA) as described by Neuhoff^55. Blotting and immunostaining were done with a rabbit anti-A1PI antibody (Rabbit Anti-Human Alpha-1-Antitrypsin, #A0012, DakoCytomation, Glostrup, Denmark).

[2] = molecular target: T2, CPN (Homo sapiens, UniProt P15169); assay: CPN-catalysed removal of C-terminal lysine from A1PI products, released Lys by HPLC; assay type: biochemical; set-up: purchased Elastin Company; conditions: for Ethanol concentration at which linear increase of Lys removal starts: incubation with CPN, 10 min
T2 sequence (P15169 21-458): T1 sequence (P15169 21-458)
T2 sequence (P22792 22-545 partner): T1 sequence (P22792 22-545 partner)
Description: The cleaved C-terminal lysine of A1PI was determined using automated orthophtalicdialdehyd (OPA) pre-column derivatization and high-performance liquid chromatography. The derivatization reagent was prepared by dissolving 100 mg of OPA in 2.5 mL of methanol by short ultrasonication, adding 23 mL of deoxygenated sodium borate buffer (0.2 mol/L, pH 9.0), 100 μl of 2-mercaptoethanol and 100 μl of Brij 35 as described^53. The system used was an ASTED HPLC system (Gilson, Paris) with Shimadzu RF-A fluorescence detector and a C-18 Chromolith ODS 4.7*100 mm column. A mixture of 50 mM KH2PO4, acetonitrile and methanol (ratio 50:24:26) was used as mobile phase and ornithine was used as internal standard.
To 30 μl 0.5 mM A1PI (using ARALAST® (Alpha1-Proteinase Inhibitor (Human)) or PROLASTIN® (Alpha1-Proteinase Inhibitor (Human))) 10 μl water or ethanol (different concentrations) was added. Afterwards 10 μl CPN (500 U/L) was added and after a 10 minutes incubation interval the reaction was stopped by adding 50 μl internal standard in 0.25 M HCl. The cleaved lysine was quantified as described above.

[3] = HP-SEC aggregate content of A1PI products; assay type: physicochemical
Description: (§3) ARALAST® (Alpha1-Proteinase Inhibitor (Human)), Prolastin PROLASTIN® (Alpha1-Proteinase Inhibitor (Human)), and ZEMAIRA® (Alpha1-Proteinase Inhibitor (Human)) were analyzed by high-resolution IEF and high-performance size-exclusion chromatography (HP-SEC). Preparative separated isoforms from IEF were further purified by chromatography and subjected to mass spectrometry for sequence analyses, peptide mapping, and glycosylation analysis. Deamidation was quantified by enzymatic isoaspartate detection. Multiple sequence alignments and structural bioinformatics analyses were performed.

[4] = Percent C-terminal Lys truncated (des-Lys) A1PI in A1PI products; assay type: physicochemical, human; conditions: commercial product
Description: as §3

[5] = tested on: A1PI; assay: Incubation of purified non-truncated A1PI with carboxypeptidases, analysis by IEF; assay type: biochemical, human; conditions: for Lys truncation of A1PI by carboxypeptidase: A1PI in temporary contact with 40% ethanol, then diluted to 10% ethanol; for C-terminal lys removal from A1PI by carboxypeptidase: in the presence of only 10% ethanol
Description: A1PI solutions were incubated with different CPs. Temporary exposure to 40% ethanol was achieved by diluting the A1PI preparation (38 μM) with 96% ethanol. The precipitate formed was kept 30 min at −20° C. and a further 30 min at +4° C., before it was diluted with TRIS-HCl buffer (pH 8.8) to a final concentration of 10% ethanol. Concomitantly, CPs were added with the TRIS buffer and the reaction mixture containing 10 μM A1PI was then incubated at 37° C. for 60 min. Before IEF analysis dithioerythritol (DTE) was added to a final concentration of 5 mM. In addition, the incubation with CPs was done without ethanol or at 10% ethanol. Furthermore, we ran two concentration rows with either CPN (270-1 mU/ml) or CPM (250-10 mU/ml) after temporary exposure of A1PI to 40% ethanol (CPN units were tested against Hip-Arg).
as §2

[6] = tested on: A1PI; assay: C-terminal Lys truncation of A1PI in dissolved Cohn IV-1 paste (IEF); assay type: biochemical, human; conditions: presence of only 10% ethanol; CPB added, CPN as present in the paste
Description: as §1
IV-1 paste was dissolved in 20.6 volumes of 10 mM Tris-buffer at pH 8.8 and incubated during 30 min at 22° C. The suspension was made 10% in ethanol (by addition of 2.4 volumes of ethanol) and stirred for a further 6 h at 22° C. and pH 8.8.
as §2

Molecule: NCCCCCC(=O)O [6-amino caproic acid]
- Inhibition of Lys truncation induced by the procedure 40=>10% EtOH ([1]; dissolved IV-1 paste, pH 8.8, 6 h): could be inhibited
- Inhibition of lysine removal from A1PI ([1]; inhibitor at 100 mM): completely inhibited

Molecule: ARALAST: Alpha1-Proteinase Inhibitor (Human), approved plasma-derived A1PI concentrate, made from Cohn IV-1+IV-4 paste
- Ethanol concentration at which linear increase of Lys removal starts [2]: 10 % ethanol

Molecule: PROLASTIN: Alpha1-Proteinase Inhibitor (Human), approved plasma-derived A1PI concentrate, purified from fraction IV-1
- Aggregate content [3]: approximately 30%
- Lys removed by CPN ([2]; absence of ethanol): very small amounts
- Ethanol concentration at which linear increase of Lys removal starts [2]: 5 % ethanol

Molecule: ZEMAIRA: Alpha1-Proteinase Inhibitor (Human), approved plasma-derived A1PI concentrate
- Percent of A1PI C-terminal truncation as compared to total A1PI protein [4]: 6%

B1: CPM: carboxypeptidase M, EC 3.4.17.12, recombinant, expressed in P. pastoris (protein, UniProt P14384 18-423, looked up)
Carboxypeptidase M: LDFNYHRQEGMEAFLKTVAQNYSSVTHLHSIGKSVKGRNLWVLVVGRFPKEHRIGIPEFKYVANMHGDETVGRELLLHLIDYLVTSDGKDPEITNLINSTRIHIMPSMNPDGFEAVKKPDCYYSIGRENYNQYDLNRNFPDAFEYNNVSRQPETVAVMKWLKTETFVLSANLHGGALVASYPFDNGVQATGALYSRSLTPDDDVFQYLAHTYASRNPNMKKGDECKNKMNFPNGVTNGYSWYPLQGGMQDYNYIWAQCFEITLELSCCKYPREEKLPSFWNNNKASLIEYIKQVHLGVKGQVFDQNGNPLPNVIVEVQDRKHICPYRTNKYGEYYLLLLPGSYIINVTVPGHDPHITKVIIPEKSQNFSALKKDILLPFQGQLDSIPVSNPSCPMIPLYRNLPDHS
- Carboxypeptidase concentration inducing 50% C-terminal A1PI truncation ([5]; 40% ethanol-pretreated purified A1PI): 50 mU/ml
- Lys truncation of A1PI by carboxypeptidase [5]: almost complete

B2: CPN: carboxypeptidase N, EC 3.4.17.3, basic carboxypeptidase of plasma (protein, UniProt P15169 21-458; P22792 22-545, looked up)
Carboxypeptidase N catalytic …: T1 sequence (P15169 21-458)
Carboxypeptidase N subunit 2: T1 sequence (P22792 22-545 partner)
- C-terminal lysines cleaved from purified uncleaved A1PI ([5]; 50 mU CPN/ml): 10-20%
- Lys truncation of A1PI by carboxypeptidase [5]: ~60%
- C-terminal lys removal from A1PI by carboxypeptidase [5]: slightly
- Lys truncation of A1PI in dissolved IV-1 paste by carboxypeptidase [6]: did not remove the C-terminal lysine

B3: CPB: carboxypeptidase B, EC 3.4.17.2, small 35 kDa carboxypeptidase from pancreas (protein, UniProt P15086 111-417, looked up)
Carboxypeptidase B: ATGHSYEKYNKWETIEAWTQQVATENPALISRSVIGTTFEGRAIYLLKVGKAGQNKPAIFMDCGFHAREWISPAFCQWFVREAVRTYGREIQVTELLDKLDFYVLPVLNIDGYIYTWTKSRFWRKTRSTHTGSSCIGTDPNRNFDAGWCEIGASRNPCDETYCGPAAESEKETKALADFIRNKLSSIKAYLTIHSYSQMMIYPYSYAYKLGENNAELNALAKATVKELASLHGTKYTYGPGATTIYPAAGGSDDWAYDQGIRYSFTFELRDTGRYGFLLPESQIRATCEETFLAIKYVASYVLEHLY
- Lys truncation of A1PI by carboxypeptidase [5]: almost complete
- C-terminal lys removal from A1PI by carboxypeptidase [5]: completely truncate
- Lys truncation of A1PI in dissolved IV-1 paste by carboxypeptidase [6]: almost complete
